± gives the uncertainty stated by the source.

B1: POU domain, class 3, transcription factor 3, residues 408 to 463; numbered along this chain, P20264 (parent)
chain: KKRTSIEVSVKGALESHFLKCPKPSAQEITNLADSLQLEKEVVRVWFCNRRQKEKR

This data set covers variants of B1. Nature of the data set: abundance fitness (aPCA) (normalised: wild type 0, dead -1); higher = more abundant; growth selection in yeast, the domain comes from the species named. The settings on record: Homo sapiens.
Regarding KKRTSIEVSVKGALESHFLKCPKPSAQEITNLADSLQLEKEVVRVSFCNRRQKEKR [W46S], the abundance fitness is -0.422 ± 0.45.

As to KKRTSIEVSVKGALESHFLKCPKPSAQEITNLADSLQLEKEVVRVRFCNRRQKEKR [W46R], the abundance fitness was -0.248 ± 0.22. In the case of KKRTSIEVSVKGALESHFLKCPKPSAQEITNLADSLQLEKEVVRVWFVNRRQKEKR [C48V], the abundance fitness was 0.068 ± 0.099. On to KKRTSIEVSVKGALESHFLKCPKPSAQEITNLADSLQLEKEVVRVWFENRRQKEKR [C48E], for which the abundance fitness amounted to 0.069 ± 0.13. With KKRTSIEVSVKGALESHFLKCPKPSAQEITNLADSLQLEKEVVRVWFGNRRQKEKR [C48G], the abundance fitness was -0.109 ± 0.073. For the variant KKRTSIEVSVKGALESHFLKCPKPSAQEITNLADSLQLEKEVVRVWFTNRRQKEKR [C48T], the abundance fitness came out at 0.032 ± 0.1. With KKRTSIEVSVKGALESHFLKCPKPSAQEITNLADSLQLEKEVVRVWFYNRRQKEKR [C48Y] the figure was 0.068 ± 0.1. As for KKRTSIEVSVKGALESHFLKCPKPSAQEITNLADSLQLEKEVVRVWFRNRRQKEKR [C48R], the abundance fitness worked out at 0.035 ± 0.062.

For the variant KKRTSIEVSVKGALESHFLKCPKPSAQEITNLADSLQLEKEVVRVWFPNRRQKEKR [C48P], the abundance fitness is -0.657 ± 0.13. Take KKRTSIEVSVKGALESHFLKCPKPSAQEITNLADSLQLEKEVVRVWFKNRRQKEKR [C48K]: the abundance fitness was -0.074 ± 0.11.

Turning to KKRTSIEVSVKGALESHFLKCPKPSAQEITNLADSLQLEKEVVRVWFSNRRQKEKR [C48S], the abundance fitness came to 0.045 ± 0.07.

In the case of KKRTSIEVSVKGALESHFLKCPKPSAQEITNLADSLQLEKEVVRVWFDNRRQKEKR [C48D], the abundance fitness was -0.029 ± 0.2. With KKRTSIEVSVKGALESHFLKCPKPSAQEITNLADSLQLEKEVVRVWFINRRQKEKR [C48I] the figure was 0.045 ± 0.14; with KKRTSIEVSVKGALESHFLKCPKPSAQEITNLADSLQLEKEVVRVWFQNRRQKEKR [C48Q], 0.131 ± 0.088; with KKRTSIEVSVKGALESHFLKCPKPSAQEITNLADSLQLEKEVVRVWFWNRRQKEKR [C48W], -0.113 ± 0.083. For KKRTSIEVSVKGALESHFLKCPKPSAQEITNLADSLQLEKEVVRVWFMNRRQKEKR [C48M], the abundance fitness stood at 0.026 ± 0.11.

With KKRTSIEVSVKGALESHFLKCPKPSAQEITNLADSLQLEKEVVRVWFLNRRQKEKR [C48L], the abundance fitness is -0.047 ± 0.079. Turning to KKRTSIEVSVKGALESHFLKCPKPSAQEITNLADSLQLEKEVVRVWFNNRRQKEKR [C48N], the abundance fitness came out at 0.211 ± 0.2. With KKRTSIEVSVKGALESHFLKCPKPSAQEITNLADSLQLEKEVVRVWFANRRQKEKR [C48A] the figure was -0.12 ± 0.12; with KKRTSIEVSVKGALESHFLKCPKPSAQEITNLADSLQLEKEVVRVWFCNTRQKEKR [R50T], -0.883 ± 0.17. To KKRTSIEVSVKGALESHFLKCPKPSAQEITNLADSLQLEKEVVRVWFCNERQKEKR [R50E] belongs -0.538 ± 0.1. KKRTSIEVSVKGALESHFLKCPKPSAQEITNLADSLQLEKEVVRVWFCNVRQKEKR [R50V]: the abundance fitness was -0.914 ± 0.089. In the case of KKRTSIEVSVKGALESHFLKCPKPSAQEITNLADSLQLEKEVVRVWFCNMRQKEKR [R50M], the abundance fitness was -0.497 ± 0.11. Take KKRTSIEVSVKGALESHFLKCPKPSAQEITNLADSLQLEKEVVRVWFCNYRQKEKR [R50Y]: the abundance fitness was -0.889 ± 0.18. KKRTSIEVSVKGALESHFLKCPKPSAQEITNLADSLQLEKEVVRVWFCNCRQKEKR [R50C]: the abundance fitness was -0.75 ± 0.12.

KKRTSIEVSVKGALESHFLKCPKPSAQEITNLADSLQLEKEVVRVWFCNQRQKEKR [R50Q]: the abundance fitness was -0.275 ± 0.11. As to KKRTSIEVSVKGALESHFLKCPKPSAQEITNLADSLQLEKEVVRVWFCNHRQKEKR [R50H], the abundance fitness was -0.668 ± 0.15. To KKRTSIEVSVKGALESHFLKCPKPSAQEITNLADSLQLEKEVVRVWFCNKRQKEKR [R50K] belongs -0.364 ± 0.14. On to KKRTSIEVSVKGALESHFLKCPKPSAQEITNLADSLQLEKEVVRVWFCNNRQKEKR [R50N], for which the abundance fitness was -0.919 ± 0.22. On to KKRTSIEVSVKGALESHFLKCPKPSAQEITNLADSLQLEKEVVRVWFCNIRQKEKR [R50I], for which the abundance fitness was -0.809 ± 0.22. KKRTSIEVSVKGALESHFLKCPKPSAQEITNLADSLQLEKEVVRVWFCNLRQKEKR [R50L]: the abundance fitness is -0.739 ± 0.09.

Take KKRTSIEVSVKGALESHFLKCPKPSAQEITNLADSLQLEKEVVRVWFCNARQKEKR [R50A]: the abundance fitness was -0.416 ± 0.073.

For the variant KKRTSIEVSVKGALESHFLKCPKPSAQEITNLADSLQLEKEVVRVWFCNWRQKEKR [R50W], the abundance fitness is -0.883 ± 0.15. Consider KKRTSIEVSVKGALESHFLKCPKPSAQEITNLADSLQLEKEVVRVWFCNFRQKEKR [R50F], for which the abundance fitness is -0.875 ± 0.18. On to KKRTSIEVSVKGALESHFLKCPKPSAQEITNLADSLQLEKEVVRVWFCNPRQKEKR [R50P], for which the abundance fitness is -0.853 ± 0.12. With KKRTSIEVSVKGALESHFLKCPKPSAQEITNLADSLQLEKEVVRYWFCNRRQKEKR [V45Y] the figure was -0.28 ± 0.14; with KKRTSIEVSVKGALESHFLKCPKPSAQEITNLADSLQLEKEVVRMWFCNRRQKEKR [V45M], -0.06 ± 0.13; with KKRTSIEVSVKGALESHFLKCPKPSAQEITNLADSLQLEKEVVRTWFCNRRQKEKR [V45T], -0.028 ± 0.097.

For KKRTSIEVSVKGALESHFLKCPKPSAQEITNLADSLQLEKEVVRNWFCNRRQKEKR [V45N], the abundance fitness is -0.206 ± 0.14.

For KKRTSIEVSVKGALESHFLKCPKPSAQEITNLADSLQLEKEVVRWWFCNRRQKEKR [V45W], the abundance fitness is -0.162 ± 0.087. To KKRTSIEVSVKGALESHFLKCPKPSAQEITNLADSLQLEKEVVRQWFCNRRQKEKR [V45Q] belongs 0.052 ± 0.097; to KKRTSIEVSVKGALESHFLKCPKPSAQEITNLADSLQLEKEVVRSWFCNRRQKEKR [V45S], 0.032 ± 0.064. To KKRTSIEVSVKGALESHFLKCPKPSAQEITNLADSLQLEKEVVRRWFCNRRQKEKR [V45R] belongs -0.109 ± 0.057; to KKRTSIEVSVKGALESHFLKCPKPSAQEITNLADSLQLEKEVVRVWFCRRRQKEKR [N49R], -0.278 ± 0.07; to KKRTSIEVSVKGALESHFLKCPKPSAQEITNLADSLQLEKEVVRVWFCVRRQKEKR [N49V], -0.152 ± 0.1. KKRTSIEVSVKGALESHFLKCPKPSAQEITNLADSLQLEKEVVRVWFCKRRQKEKR [N49K]: the abundance fitness is -0.276 ± 0.15. In the case of KKRTSIEVSVKGALESHFLKCPKPSAQEITNLADSLQLEKEVVRVWFCYRRQKEKR [N49Y], the abundance fitness is -0.381 ± 0.2.

The values above are taken from the Human Domainome abundance scans (Beltran et al. 2025).
